This data set concerns the target T1, SFVmac PR-RT WT (simian foamy virus from macaque (SFVmac), UniProt P23074 1-751).
T1 sequence: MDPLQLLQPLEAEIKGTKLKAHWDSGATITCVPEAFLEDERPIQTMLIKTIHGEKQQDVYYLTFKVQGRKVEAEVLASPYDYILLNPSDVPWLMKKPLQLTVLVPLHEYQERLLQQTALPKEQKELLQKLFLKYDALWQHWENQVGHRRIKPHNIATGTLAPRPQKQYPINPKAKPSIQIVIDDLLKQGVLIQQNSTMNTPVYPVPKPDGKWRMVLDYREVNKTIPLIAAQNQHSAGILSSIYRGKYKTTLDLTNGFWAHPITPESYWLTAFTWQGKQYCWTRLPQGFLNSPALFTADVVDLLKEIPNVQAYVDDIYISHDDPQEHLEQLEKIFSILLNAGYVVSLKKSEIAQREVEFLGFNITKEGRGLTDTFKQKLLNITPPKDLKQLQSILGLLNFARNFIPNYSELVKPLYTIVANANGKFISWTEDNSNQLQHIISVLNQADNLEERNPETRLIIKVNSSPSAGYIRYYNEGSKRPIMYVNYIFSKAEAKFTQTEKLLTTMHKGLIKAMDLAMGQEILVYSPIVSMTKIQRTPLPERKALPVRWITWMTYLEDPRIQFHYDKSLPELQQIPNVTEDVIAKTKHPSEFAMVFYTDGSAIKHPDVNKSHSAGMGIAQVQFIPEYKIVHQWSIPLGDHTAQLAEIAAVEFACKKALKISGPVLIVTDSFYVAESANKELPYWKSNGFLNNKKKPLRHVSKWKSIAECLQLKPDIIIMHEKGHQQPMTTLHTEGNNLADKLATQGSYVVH
Briefly: fluorescence anisotropy.

B1: 24/40-mer DNA/RNA P/T (DNA:RNA)
DNA: ATCACCAGGAGAGGGGAAAGCGGA
RNA: CUAAUUCCGCUUUCCCCUCUCCUGGUGAUCCUUUCCAUCC
In turn, B1 registered an equilibrium dissociation constant (Kd) of 32.4 ± 4.2 nM.

B2: 24/40-mer DNA/DNA P/T (dsDNA)
DNA 1: ATCACCAGGAGAGGGGAAAGCGGA
DNA 2: CTAATTCCGCTTTCCCCTCTCCTGGTGATCCTTTCCATCC
In the case of B2, the equilibrium dissociation constant (Kd) turned out to be 36.4 ± 2.4 nM.

What is called Kd is the constant that tells how readily two partners part at equilibrium.

These data come from PMC2241919.
